Values quoted from earlier work in paper PMC3877032.
pKd: −log10 of the molar value.

Columns and labels:
ERK2 (Homo sapiens) = ERK2 (Homo sapiens) (UniProt P28482)
PLD1 (Homo sapiens) = PLD1 (Homo sapiens) (UniProt Q13393)
Sequence of UniProt Q13393 (Q13393 whole entry): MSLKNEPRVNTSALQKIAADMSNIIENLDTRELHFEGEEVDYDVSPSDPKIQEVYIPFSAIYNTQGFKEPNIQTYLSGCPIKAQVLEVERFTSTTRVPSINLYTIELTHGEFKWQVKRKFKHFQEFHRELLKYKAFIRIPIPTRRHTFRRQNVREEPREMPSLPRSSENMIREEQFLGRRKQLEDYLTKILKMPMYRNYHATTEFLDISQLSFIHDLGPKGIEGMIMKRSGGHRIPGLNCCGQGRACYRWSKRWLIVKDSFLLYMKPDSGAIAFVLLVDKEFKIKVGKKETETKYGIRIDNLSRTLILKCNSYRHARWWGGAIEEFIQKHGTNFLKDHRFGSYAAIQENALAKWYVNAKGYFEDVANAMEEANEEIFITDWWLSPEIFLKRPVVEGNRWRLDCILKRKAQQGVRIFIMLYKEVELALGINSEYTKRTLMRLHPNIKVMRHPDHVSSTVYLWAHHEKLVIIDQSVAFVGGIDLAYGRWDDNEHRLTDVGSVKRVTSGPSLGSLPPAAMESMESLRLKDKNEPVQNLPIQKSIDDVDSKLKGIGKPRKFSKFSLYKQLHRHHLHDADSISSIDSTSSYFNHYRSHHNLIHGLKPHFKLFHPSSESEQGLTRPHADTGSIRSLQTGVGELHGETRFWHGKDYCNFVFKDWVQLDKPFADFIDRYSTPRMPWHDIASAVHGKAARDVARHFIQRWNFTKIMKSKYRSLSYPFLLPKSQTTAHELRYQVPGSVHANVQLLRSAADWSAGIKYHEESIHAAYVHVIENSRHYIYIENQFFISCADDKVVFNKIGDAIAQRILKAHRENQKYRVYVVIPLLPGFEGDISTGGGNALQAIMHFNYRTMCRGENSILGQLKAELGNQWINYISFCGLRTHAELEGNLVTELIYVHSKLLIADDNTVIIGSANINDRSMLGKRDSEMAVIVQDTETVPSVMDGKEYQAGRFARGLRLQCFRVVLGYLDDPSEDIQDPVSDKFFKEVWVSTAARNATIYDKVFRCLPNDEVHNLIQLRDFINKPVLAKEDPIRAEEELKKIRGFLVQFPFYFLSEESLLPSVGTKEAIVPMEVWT

Sequence of UniProt P28482 (P28482 2-360): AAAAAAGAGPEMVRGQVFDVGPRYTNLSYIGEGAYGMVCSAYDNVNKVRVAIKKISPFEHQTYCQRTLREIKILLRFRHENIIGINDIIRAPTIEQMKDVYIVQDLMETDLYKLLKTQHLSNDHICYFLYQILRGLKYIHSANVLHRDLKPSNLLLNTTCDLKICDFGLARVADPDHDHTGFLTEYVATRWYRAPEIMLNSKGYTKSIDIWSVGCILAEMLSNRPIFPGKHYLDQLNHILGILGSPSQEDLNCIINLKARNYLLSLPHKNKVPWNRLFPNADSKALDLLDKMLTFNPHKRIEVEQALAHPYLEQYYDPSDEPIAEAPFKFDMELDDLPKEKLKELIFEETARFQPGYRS

## PEA-15 (from UniProt Q15121)
ERK2 (Homo sapiens)
  pKd: 6.88
PLD1 (Homo sapiens)
  pKd: 6.43
